Publication PMC9435400

Columns and labels:
Assay in all cases: SEC
[1] = target: Rs4081 soluble spike ectodomain (2P, GSAS, T4 fibritin trimerization motif) (Rs4081 (sarbecovirus) | bacteriophage T4)
[2] = target: Pang17 soluble spike ectodomain (2P, GSAS, T4 fibritin trimerization motif) (pang17 (sarbecovirus of pangolins) | bacteriophage T4)
[3] = target: Rf1 soluble spike ectodomain (2P, GSAS, T4 fibritin trimerization motif) (Rf1 (sarbecovirus) | bacteriophage T4)
[4] = target: Yun11 soluble spike ectodomain (2P, GSAS, T4 fibritin trimerization motif) (Yun11 (sarbecovirus) | bacteriophage T4)
[5] = target: RmYN02 soluble spike ectodomain (2P, GSAS, T4 fibritin trimerization motif) (RmYN02 (sarbecovirus) | bacteriophage T4)
[6] = target: BtKY72 soluble spike ectodomain (2P, GSAS, T4 fibritin trimerization motif) (BtKY72 (sarbecovirus) | bacteriophage T4)
[7] = target: SARS-CoV-1 soluble spike ectodomain (2P, GSAS, T4 fibritin trimerization motif) (SARS-CoV-1 | bacteriophage T4) (UniProt P59594)
[8] = target: BM48-31 soluble spike ectodomain (2P, GSAS, T4 fibritin trimerization motif) (BM48-31 (sarbecovirus) | bacteriophage T4)

Substance “Rs4081 soluble spike ectodomain (2P, GSAS, T4 fibritin trimerization motif) (domain or fragment)” has a stoichiometry N [1] of 3.

Work on “Pang17 soluble spike ectodomain (2P, GSAS, T4 fibritin trimerization motif) (domain or fragment)” yielded a stoichiometry N [2] of 3.

Substance “Rf1 soluble spike ectodomain (2P, GSAS, T4 fibritin trimerization motif) (domain or fragment)” has a stoichiometry N [3] of 3.

“Yun11 soluble spike ectodomain (2P, GSAS, T4 fibritin trimerization motif) (domain or fragment)” showed a stoichiometry N [4] of 3.

“RmYN02 soluble spike ectodomain (2P, GSAS, T4 fibritin trimerization motif) (domain or fragment)” was tested, and the stoichiometry N [5] was 3.

With “BtKY72 soluble spike ectodomain (2P, GSAS, T4 fibritin trimerization motif) (domain or fragment)” the stoichiometry N [6] was 3.

“SARS-CoV-1 soluble spike ectodomain (2P, GSAS, T4 fibritin trimerization motif) (from UniProt P59594 14-1190) (domain or fragment)” gave a stoichiometry N [7] of 3.

“BM48-31 soluble spike ectodomain (2P, GSAS, T4 fibritin trimerization motif) (domain or fragment)” showed a stoichiometry N [8] of 3.
